Consider 36 sequences from the supplement of paper PMC10567573.

± gives the standard deviation.

The nature of the series: protein stability index of a GFP-peptide fusion (GPS, HEK-293T) (PSI 1-6); higher = more stable. The settings on record: c terminus: a fixed tail appended.
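Further: 24-mer peptide tiles fused after GFP, lentivirally expressed, FACS-sorted into six equal bins by GFP/DsRed ratio, decoded by Illumina sequencing, PSI is the read-weighted mean bin number.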

Regarding ALIETSYVKVLHHMVKISGGPRIS [MAGEA6], the protein stability index by setting is: (treatment: DMSO) 2.93 ± 0.41; (treatment: MLN4924 1 uM, 8 h) 2.88 ± 0.51.
For ALKHPWISHRSTVASCMHRQETVD [CAMK2A], in that order: 3.18 ± 0.13 and 3.35 ± 0.16.
In the same order, the values of ALLFTGIAVLGIVMLKRIHSLYRR [SCAMP3] are 2.2 ± 0.52 and 1.96 ± 0.25.
For ALQTLLTLIVVDASGLGLEITTQF [SLC19A2], in that order: 3 ± 0.39 and 3.31 ± 0.56.
Consider ALSFTLLGSAPLDQEPLLSIDLGT [NEK8], for which the protein stability index was 2.29 ± 0.36 (treatment: DMSO) and 2.44 ± 0.23 (treatment: MLN4924 1 uM, 8 h).
Take AMFAADPKKPIGGNIIAHASTTRL [RAD51]: the protein stability index by setting is: (treatment: DMSO) 3.32 ± 0.087; (treatment: MLN4924 1 uM, 8 h) 3.39 ± 0.12.
Take AMFLGDAAAHWYGGAEMRTQHWPI [MYORG]: the protein stability index runs as follows: (treatment: DMSO) 2.41 ± 0.81; (treatment: MLN4924 1 uM, 8 h) 2.17 ± 0.25.
On to AMFPETLDEGMQIPSTQFDAAHPT [CTNNB1], for which the protein stability index (treatment: DMSO) turned out to be 4.5 ± 0.091 and the protein stability index (treatment: MLN4924 1 uM, 8 h) was 4.49 ± 0.28.
For ANFSLGSINQRLNKRERSKLKNLR [RNF180], in that order: 2.91 ± 0.35 and 3.28 ± 0.43.
On to ANLAASGGYAIAVVLLQGAELLLA [TSPAN10], for which the protein stability index stood at 2.97 ± 0.54 (treatment: DMSO) and 3.05 ± 0.92 (treatment: MLN4924 1 uM, 8 h).
APANVAKIQLRLAGQKRKHSEGRV [LOXL2] registered a protein stability index (treatment: DMSO) of 3.88 ± 0.13 and a protein stability index (treatment: MLN4924 1 uM, 8 h) of 4.53 ± 0.32.
For APCRSAQASVSCALEALEPFWEVL [HDAC6], in that order: 3.32 ± 0.59 and 2.69 ± 0.82.
Regarding APGFGEDVPNRLVDNIDMIDGDGD [BEX5], the protein stability index is, setting by setting: (treatment: DMSO) 5.5 ± 0.23; (treatment: MLN4924 1 uM, 8 h) 5.59 ± 0.19.
Take APPLPGAESFPGSQVMGSGRGSLS [PLEKHN1]: the protein stability index reads like this: (treatment: DMSO) 4.82 ± 0.28; (treatment: MLN4924 1 uM, 8 h) 4.61 ± 0.2.
APPRRLRSRKVSCPLTRSNGDLSR [FCHO1] gave a protein stability index (treatment: DMSO) of 4.16 ± 0.17 and a protein stability index (treatment: MLN4924 1 uM, 8 h) of 4.34 ± 0.062.
For APVANSYRGTLKRQPAFDTFDGSL [ETS2], in that order: 3.4 ± 0.097 and 3.42 ± 0.13.
For AQKALDLPSSGEGLAFFTFPNIAS [HMOX1], in that order: 2.88 ± 0.2 and 2.96 ± 0.25.
With ARLASPLPREEEIVFPEKLNGSVL [ADAMTS4], the protein stability index stood at 4.01 ± 0.42 (treatment: DMSO) and 4.16 ± 0.15 (treatment: MLN4924 1 uM, 8 h).
Take ARLQDFQELELVLMISENNFLFRN [ANKRD40]: the protein stability index reads like this: (treatment: DMSO) 2.97 ± 0.63; (treatment: MLN4924 1 uM, 8 h) 2.66 ± 0.58.
On to ARQHALYIWEKSIGNLVKILHGTR [RBBP5], for which the protein stability index reads like this: (treatment: DMSO) 2.26 ± 0.36; (treatment: MLN4924 1 uM, 8 h) 2.5 ± 0.41.
For ARRELQAEREALQARLRDVSRREG [ZBED3], in that order: 4.79 ± 0.15 and 4.8 ± 0.18.
In the same order, the values of ARYAQQKHRIRRVLIVDWDVHHGQ [HDAC6] are 2.33 ± 0.19 and 2.31 ± 0.42.
As for ASVVLPARELQEALPEAPAPLLPH [BCL2L13], the protein stability index runs as follows: (treatment: DMSO) 4.34 ± 0.17; (treatment: MLN4924 1 uM, 8 h) 4.35 ± 0.22.
Take ATDMISIFEPPVRNSGIIGGKYLG [EFHC1]: the protein stability index by setting is: (treatment: DMSO) 2.92 ± 0.25; (treatment: MLN4924 1 uM, 8 h) 3.16 ± 0.21.
For AVINDIANLPVPTIAAIDGLALGG [AUH], in that order: 2.79 ± 0.21 and 2.62 ± 0.23.
For AYGNRTECRNPQELESIRQDRDAL [FEM1B], the protein stability index reads like this: (treatment: DMSO) 4.71 ± 0.24; (treatment: MLN4924 1 uM, 8 h) 4.68 ± 0.16.
For the sequence AYHDPMLKLSIMSEEELTHIFGDL [NET1], the protein stability index (treatment: DMSO) came out at 3.28 ± 0.24 and the protein stability index (treatment: MLN4924 1 uM, 8 h) is 3.5 ± 0.48.
For CAERLQSEEQVSKNLFGPPLESAF [FCHO1], the protein stability index by setting is: (treatment: DMSO) 3.36 ± 1.1; (treatment: MLN4924 1 uM, 8 h) 3.58 ± 0.52.
In the same order, the values of CAINKVGVSFSTVENELMISYLMF [FAM98B] are 2.63 ± 0.48 and 2.81 ± 0.41.
For CAKYTYPVCSALLDPVLQAPGTGP [FANCE], in that order: 2.65 ± 0.14 and 2.26 ± 0.17.
For CDLFDREIVVTISWAKSIPGFSSL [ESRRA], the protein stability index reads like this: (treatment: DMSO) 3.28 ± 0.16; (treatment: MLN4924 1 uM, 8 h) 2.97 ± 0.4.
For CEGRRTRFRSCNTEDCPTGSALTF [ADAMTS4], in that order: 3.42 ± 0.18 and 3.29 ± 0.092.
For CEMEQQSQEYQILLDVKTRLEQEI [KRT16], in that order: 4.1 ± 0.39 and 4.11 ± 0.37.
For CGINANDVKKLEEAGFHTVEAVAY [RAD51], in that order: 2.58 ± 0.25 and 2.47 ± 0.22.
As for CMFCNEEFLGNRSVILNHMAREHA [ZNF277], the protein stability index stood at 3.62 ± 0.38 (treatment: DMSO) and 3.52 ± 0.46 (treatment: MLN4924 1 uM, 8 h).
For CQECGKTFRVSSDLIKHQRIHTEE [ZNF75A], in that order: 5.26 ± 0.4 and 5.41 ± 0.31.
